Biological target: the molecule itself
Test: immunoblot after SDS-PAGE (higher molecular weight band); total protein lysate of WT/pcon ++flgV (PA267) B. burgdorferi, log and stationary phase, boiled in Laemmli buffer with beta-mercaptoethanol, Tris-Glycine gel, probed with anti-FlgV

B1: FlgV (BB0268), B. burgdorferi (natural protein)
chain: MFISRELKYILLTSVSALFISAVLGLFCGLSFFTILVRSLLQFVFFFVIGLLIEYIFKKYLSNLFSTELSGNMENKPQDDKKSDKDFKENLDFQNKNSLYENSQNISSSGDFIEEVKKYKFETEDVSRGSDKNKKMSFIEDNDPKVVADAIKTLMSKKE
notes: FlgV (BB0268) of Borrelia burgdorferi B31; ORF of 480 bp; antigen for the antibody was amino acids 58-159; two predicted transmembrane helices (amino acids 13 to 35 and 40 to 57); native flgV ORF amplified from B. burgdorferi A3 genomic DNA for the overexpression plasmid; Untagged protein; Strains, plasmids and primers are in Supplementary Data 1; also called bb0268 gene product; previously …
  stoichiometry N: 2
